1 substance from PMC2964344 can be followed below.

For the data set the following is noted: methylation at K27.

On to “histone H3: ATXR6 Y243N (SET-domain catalytic mutant) expressed in atxr5 atxr6”, for which the other result was “changes”.
